The text below walks through data of PMC10216714, “NMR and Patch-Clamp Characterization of Yeast Mitochondrial Pyruvate Carrier Complexes” (Biomolecules, 2023).

The target of data set [1] is T1, Saccharomyces cerevisiae mitochondrial pyruvate carrier 1 (Mpc1) with C-terminal 8×His-tag (Saccharomyces cerevisiae), P53157.
T1 chain: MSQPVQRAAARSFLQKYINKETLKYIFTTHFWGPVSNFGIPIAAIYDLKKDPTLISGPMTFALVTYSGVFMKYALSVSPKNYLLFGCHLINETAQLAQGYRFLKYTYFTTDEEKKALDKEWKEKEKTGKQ
Kind of data set: SEC-MALS; Superdex 75 with Dawn HELEOS II, three-detector method (MALS/UV/RI), 0.3 mL/min; 100 mM Tris/HCl pH 7.5, 150 mM NaCl, 1 mM EDTA, 10 mM β-ME, 1 mM DPC, 2 mM LDAO; second elution peak of each complex. The conditions noted are these: remark: other sources report otherwise.

Data set [2] concerns the molecule itself. The description is as above.
The target in data set [3] is T2, Mpc1^linker: Mpc1 with C-terminal ENLYFQG (TEV site), flexible linker (GGGGS)4, WSHPQFEK and 8×His-tag (Saccharomyces cerevisiae, UniProt P53157 1-130).
T2 construct: Mpc1, Saccharomyces cerevisiae, NCBI NM_001180945; The extension was added so that Mpc1 and Mpc2 can be told apart by size on SDS-PAGE; no TEV cleavage is described; not shown: 8×His, C-terminal, kept
T2 sequence (looked up): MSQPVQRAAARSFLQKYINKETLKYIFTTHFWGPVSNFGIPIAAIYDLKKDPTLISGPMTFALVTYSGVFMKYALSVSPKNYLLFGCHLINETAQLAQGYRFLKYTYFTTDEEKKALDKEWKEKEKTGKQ
Kind of data set: SEC; monomers refolded alone or pre-mixed 1:1 in LDAO/DPC (2:1), then Superdex 75 10/300 GL in 100 mM Tris/HCl pH 7.5, 150 mM NaCl, 1 mM EDTA, 10 mM β-ME, 1 mM DPC, 2 mM LDAO; peaks analysed by SDS-PAGE with Coomassie staining. The conditions noted are these: both partners purified.

The target in data set [4] is T3, Saccharomyces cerevisiae mitochondrial pyruvate carrier 1 (Mpc1) with C-terminal 8×His-tag (Saccharomyces cerevisiae, UniProt P53157 1-130).
T3 construct: Mpc1, Saccharomyces cerevisiae, NCBI NM_001180945; amplified from a cDNA library with printed primers that run from the ATG to the last codon before the stop; 15N-labelled where it was the observed partner in NMR; The reverse primer carries a BamHI site, so a few vector-coded residues may lie between Mpc1 and the His-tag (surmised); also called 15N-Mpc1; yeast Mpc1
T3 sequence (looked up): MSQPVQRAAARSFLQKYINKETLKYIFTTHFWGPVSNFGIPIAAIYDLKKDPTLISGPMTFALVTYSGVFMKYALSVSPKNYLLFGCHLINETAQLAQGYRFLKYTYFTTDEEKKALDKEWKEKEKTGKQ
Kind of data set: paramagnetic relaxation enhancement (PRE) NMR; MTSL-labelled monomer co-refolded with 15N-labelled monomer; 1H-15N BEST-TROSY with and without vitamin C; 25 mM NaAc pH 6.0, 50 mM glutamic acid, 50 mM arginine, 10 mM β-ME, 1 mM EDTA, 1 mM DPC, 2 mM LDAO; 308 K, 850 MHz. The conditions noted are these: both partners purified.

B1: Saccharomyces cerevisiae mitochondrial pyruvate carrier 1 (Mpc1) with C-terminal 8×His-tag, P53157 1-130 (natural protein)
chain: MSQPVQRAAARSFLQKYINKETLKYIFTTHFWGPVSNFGIPIAAIYDLKKDPTLISGPMTFALVTYSGVFMKYALSVSPKNYLLFGCHLINETAQLAQGYRFLKYTYFTTDEEKKALDKEWKEKEKTGKQ
In the case of B1, the stoichiometry N (as a rule, the number of molecules, sites or subunits per partner or assembly) in data set [1] worked out at 2.

B2: Saccharomyces cerevisiae mitochondrial pyruvate carrier 2 (Mpc2) with C-terminal 8×His-tag (natural protein, UniProt P38857 1-129, looked up)
chain: MSTSSVRFAFRRFWQSETGPKTVHFWAPTLKWGLVFAGFSDMKRPVEKISGAQNLSLLSTALIWTRWSFVIKPRNILLASVNSFLCLTAGYQLGRIANYRIRNGDSISQLCSYILSGADESKKEITTGR
notes: Mpc2, Saccharomyces cerevisiae, NCBI NM_001179293; amplified from a cDNA library with printed primers that run from the ATG to the last codon before the stop; 15N-labelled where it was the observed partner in NMR; The reverse primer carries a BamHI site, so a few vector-coded residues may lie between Mpc2 and the His-tag (surmised); also called 15N-Mpc2; yeast Mpc2
On to B2, for which the results for the “stoichiometry N” value in data set [2] and in data set [3] were 2 and approximately 1, respectively.

B3: MTSL-labelled Mpc2 monomer (MTSL on C86 and C111) (natural protein, Saccharomyces cerevisiae, UniProt P38857 1-129, looked up)
chain: MSTSSVRFAFRRFWQSETGPKTVHFWAPTLKWGLVFAGFSDMKRPVEKISGAQNLSLLSTALIWTRWSFVIKPRNILLASVNSFLCLTAGYQLGRIANYRIRNGDSISQLCSYILSGADESKKEITTGR
modifications: MTSL spin label on C86 and C111
notes: Mpc2, Saccharomyces cerevisiae, NCBI NM_001179293; same construct as m2, not isotope-labelled; Same chain as m2 with the paramagnetic probe on its cysteines; also called MTSL–Mpc2; source: E. coli Rosetta 2 (DE3), inclusion bodies, purified
Take B3: the binding result in data set [4] is given as “binds”.
